Results taken from patent publication EP4563596A1 (OncoSpear ApS, dated 2025).
Read-outs that look alike come from different tables or passages of the source.

Key:
[1] = biological target: CD16 V158 (FcγRIIIA) on Jurkat reporter cells (human, UniProt P08637 17-254); experiment: cell-based or functional assay
[2] = biological target: CD16 F158 (FcγRIIIA) on Jurkat reporter cells (human, UniProt P08637 17-254); experiment: cell-based or functional assay
[3] = biological target: T1, human CD163 domain 1-9, recombinant, immobilized on a CM5 sensor chip (human, UniProt Q86VB7 42-1050, limits assumed); experiment: SPR (Biacore T200), human CD163 domain 1-9 immobilised on CM5 chip, antibody injected, 1:1 kinetic fit
T1 construct: the whole entry is named; also called immobilized CD163

[4] = biological target: T1, human CD163 domain 1-9, recombinant, …; experiment: as above; remark: listed apart in the source

CD16 V158 (FcγRIIIA) on Jurkat reporter cells, sequence (P08637 17-254 F176V): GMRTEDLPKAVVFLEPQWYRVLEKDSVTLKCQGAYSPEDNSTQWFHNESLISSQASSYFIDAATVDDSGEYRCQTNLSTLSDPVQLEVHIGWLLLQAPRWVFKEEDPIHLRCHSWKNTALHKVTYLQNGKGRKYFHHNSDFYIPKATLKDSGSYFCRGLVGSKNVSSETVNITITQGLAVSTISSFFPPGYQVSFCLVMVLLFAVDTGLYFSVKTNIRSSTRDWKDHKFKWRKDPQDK
T1 sequence (Q86VB7 42-1050 limits assumed): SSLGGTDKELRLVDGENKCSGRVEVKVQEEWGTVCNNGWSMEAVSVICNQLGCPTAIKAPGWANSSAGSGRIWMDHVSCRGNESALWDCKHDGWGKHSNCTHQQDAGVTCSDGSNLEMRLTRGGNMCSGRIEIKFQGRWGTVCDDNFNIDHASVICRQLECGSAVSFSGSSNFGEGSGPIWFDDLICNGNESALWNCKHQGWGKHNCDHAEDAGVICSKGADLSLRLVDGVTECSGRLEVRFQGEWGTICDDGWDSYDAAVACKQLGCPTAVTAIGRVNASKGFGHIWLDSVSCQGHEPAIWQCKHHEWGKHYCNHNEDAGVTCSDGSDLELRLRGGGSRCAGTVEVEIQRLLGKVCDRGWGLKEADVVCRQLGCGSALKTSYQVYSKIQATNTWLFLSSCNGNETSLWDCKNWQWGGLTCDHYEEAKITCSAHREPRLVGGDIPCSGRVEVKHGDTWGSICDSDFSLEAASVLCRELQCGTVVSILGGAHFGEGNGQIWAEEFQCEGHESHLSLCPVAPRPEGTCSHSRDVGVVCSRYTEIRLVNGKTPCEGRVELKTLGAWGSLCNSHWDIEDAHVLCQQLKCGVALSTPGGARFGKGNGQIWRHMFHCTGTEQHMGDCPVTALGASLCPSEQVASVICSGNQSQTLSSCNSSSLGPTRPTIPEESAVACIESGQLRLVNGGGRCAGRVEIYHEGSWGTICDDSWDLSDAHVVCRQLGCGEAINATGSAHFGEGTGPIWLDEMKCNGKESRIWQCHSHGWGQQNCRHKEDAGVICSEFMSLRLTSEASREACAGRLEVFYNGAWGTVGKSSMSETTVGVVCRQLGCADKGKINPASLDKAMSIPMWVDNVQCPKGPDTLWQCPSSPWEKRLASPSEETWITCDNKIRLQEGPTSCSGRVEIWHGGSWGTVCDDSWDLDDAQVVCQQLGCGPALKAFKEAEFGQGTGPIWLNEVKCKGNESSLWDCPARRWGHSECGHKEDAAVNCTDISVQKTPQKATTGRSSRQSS
CD16 F158 (FcγRIIIA) on Jurkat reporter cells, sequence (P08637 17-254): as the sequence (P08637 17-254 F176V) above, with V160F counted along it

Binder | Relative EC50 ADCC V158 (high); target cells FlpIn293-hCD163 [1] | Relative EC50 ADCC F158 (low); target cells FlpIn293-hCD163 [2] | also measured
OS000 (antibody) heavy: not shown light: DIVMTQSPSSLSASVGDRVTITCRASQSVSSDVAWFQQKPGKSPKPLIYYASNRYSGVPSRFSGSGSGTDFTLTISSLQAEDFAVYFCGQDYTSPRTFGGGTKLEIKRTVAAPSVFIFPPSDEQLKSGTASVVCLLNNFYPREAKVQWKVDNALQSGNSQESVTEQDSKDSTYSLSSTLTLSKADYEKHKVYACEVTHQGLSSPVTKSFNRGEC | 0 relative (EC50 OS001/EC50 construct) | 0 relative (EC50 OS001/EC50 construct) | –
OS018 (antibody, human IgG1, kappa, also called IgG1 HC D72E) heavy: not shown light: DIVMTQSPSSLSASVGDRVTITCRASQSVSSDVAWFQQKPGKSPKPLIYYASNRYSGVPSRFSGSGSGTDFTLTISSLQAEDFAVYFCGQDYTSPRTFGGGTKLEIKRTVAAPSVFIFPPSDEQLKSGTASVVCLLNNFYPREAKVQWKVDNALQSGNSQESVTEQDSKDSTYSLSSTLTLSKADYEKHKVYACEVTHQGLSSPVTKSFNRGEC | – | – | Kd [3]: 0.51 nM; koff [3]: 0.00033 s⁻¹; kon [3]: 650000 M⁻¹ s⁻¹
OS022 (antibody, human IgG1, kappa, afucosylated glycan (GlymaxX expression), IgG1, HC D72E, afucosylated; also called IgG1 HC D72E afucosylated) heavy: not shown light: DIVMTQSPSSLSASVGDRVTITCRASQSVSSDVAWFQQKPGKSPKPLIYYASNRYSGVPSRFSGSGSGTDFTLTISSLQAEDFAVYFCGQDYTSPRTFGGGTKLEIKRTVAAPSVFIFPPSDEQLKSGTASVVCLLNNFYPREAKVQWKVDNALQSGNSQESVTEQDSKDSTYSLSSTLTLSKADYEKHKVYACEVTHQGLSSPVTKSFNRGEC | – | – | Kd [4]: 0.95 nM; koff [4]: 0.00049 s⁻¹; kon [4]: 520000 M⁻¹ s⁻¹
OS004 (antibody, human IgG1, kappa) heavy: QVQLQESGPGLVKPSETLSLTCTVSGYSITSDYAWNWIRQFPGNKLEWMGYITYSGSTYYNPSLKSRVTISVDTSKNQFSLKLSSVTAADTATYYCVSGTYYFDYWGQGTTLTVSSASTKGPSVFPLAPSSKSTSGGTAALGCLVKDYFPEPVTVSWNSGALTSGVHTFPAVLQSSGLYSLSSVVTVPSSSLGTQTYICNVNHKPSNTKVDKKVEPKSCDKTHTCPPCPAPELLGGPSVFLFPPKPKDTLMISRTPEVTCVVVDVSHEDPEVKFNWYVDGVEVHNAKTKPREEQYNYARVVSVLTVLHQDWLNGKEYKCKVSNKALPAPIAATISKAKGQPREPQVYTLPPSRDELTKNQVSLTCLVKGFYPSDIAVEWESNGQPENNYKTTPPVLDSDGSFFLYSKLTVDKSRWQQGNVFSCSVMHEALHNHYTQKSLSLSPGK light: DIVMTQSPSSLSASVGDRVTITCRASQSVSSDVAWFQQKPGKSPKPLIYYASNRYSGVPSRFSGSGSGTDFTLTISSLQAEDFAVYFCGQDYTSPRTFGGGTKLEIKRTVAAPSVFIFPPSDEQLKSGTASVVCLLNNFYPREAKVQWKVDNALQSGNSQESVTEQDSKDSTYSLSSTLTLSKADYEKHKVYACEVTHQGLSSPVTKSFNRGEC | 1.6 relative (EC50 OS001/EC50 construct) | 3.5 relative (EC50 OS001/EC50 construct) | –
OS002 (antibody, human IgG1, kappa) heavy: not shown light: DIVMTQSPSSLSASVGDRVTITCRASQSVSSDVAWFQQKPGKSPKPLIYYASNRYSGVPSRFSGSGSGTDFTLTISSLQAEDFAVYFCGQDYTSPRTFGGGTKLEIKRTVAAPSVFIFPPSDEQLKSGTASVVCLLNNFYPREAKVQWKVDNALQSGNSQESVTEQDSKDSTYSLSSTLTLSKADYEKHKVYACEVTHQGLSSPVTKSFNRGEC | 0.9 relative (EC50 OS001/EC50 construct) | 1.5 relative (EC50 OS001/EC50 construct) | –
OS003 (antibody, human IgG1, kappa) heavy: not shown light: DIVMTQSPSSLSASVGDRVTITCRASQSVSSDVAWFQQKPGKSPKPLIYYASNRYSGVPSRFSGSGSGTDFTLTISSLQAEDFAVYFCGQDYTSPRTFGGGTKLEIKRTVAAPSVFIFPPSDEQLKSGTASVVCLLNNFYPREAKVQWKVDNALQSGNSQESVTEQDSKDSTYSLSSTLTLSKADYEKHKVYACEVTHQGLSSPVTKSFNRGEC | 1.5 relative (EC50 OS001/EC50 construct) | 1.3 relative (EC50 OS001/EC50 construct) | –
OS020 (antibody, human IgG1, kappa, IgG1, HC D72E and LC G89Q, wild type glycosylation; also called IgG1 HC D72E LC G89Q) heavy: not shown light: DIVMTQSPSSLSASVGDRVTITCRASQSVSSDVAWFQQKPGKSPKPLIYYASNRYSGVPSRFSGSGSGTDFTLTISSLQAEDFAVYFCQQDYTSPRTFGGGTKLEIKRTVAAPSVFIFPPSDEQLKSGTASVVCLLNNFYPREAKVQWKVDNALQSGNSQESVTEQDSKDSTYSLSSTLTLSKADYEKHKVYACEVTHQGLSSPVTKSFNRGEC | – | – | Kd [3]: 0.47 nM; koff [3]: 0.00022 s⁻¹; kon [3]: 470000 M⁻¹ s⁻¹
OS019 (antibody, human IgG1, kappa, also called IgG1 LC G89Q) heavy: not shown light: DIVMTQSPSSLSASVGDRVTITCRASQSVSSDVAWFQQKPGKSPKPLIYYASNRYSGVPSRFSGSGSGTDFTLTISSLQAEDFAVYFCQQDYTSPRTFGGGTKLEIKRTVAAPSVFIFPPSDEQLKSGTASVVCLLNNFYPREAKVQWKVDNALQSGNSQESVTEQDSKDSTYSLSSTLTLSKADYEKHKVYACEVTHQGLSSPVTKSFNRGEC | – | – | Kd [3]: 0.41 nM; koff [3]: 0.00021 s⁻¹; kon [3]: 520000 M⁻¹ s⁻¹
OS023 (antibody, human IgG1, kappa, afucosylated glycan (GlymaxX expression), IgG1, HC D72E and LC G89Q, afucosylated; also called IgG1 HC D72E LC G89Q afucosylated) heavy: not shown light: DIVMTQSPSSLSASVGDRVTITCRASQSVSSDVAWFQQKPGKSPKPLIYYASNRYSGVPSRFSGSGSGTDFTLTISSLQAEDFAVYFCQQDYTSPRTFGGGTKLEIKRTVAAPSVFIFPPSDEQLKSGTASVVCLLNNFYPREAKVQWKVDNALQSGNSQESVTEQDSKDSTYSLSSTLTLSKADYEKHKVYACEVTHQGLSSPVTKSFNRGEC | – | – | Kd [4]: 0.8 nM; koff [4]: 0.00037 s⁻¹; kon [4]: 460000 M⁻¹ s⁻¹

More lines, main results first:

Relative EC50 ADCC V158 (high); target cells FlpIn293-hCD163 [1] | Relative EC50 ADCC F158 (low); target cells FlpIn293-hCD163 [2] | Binder | also measured
4.5 relative (EC50 OS001/EC50 construct) | 3.2 relative (EC50 OS001/EC50 construct) | OS008 (antibody, human IgG1, kappa) heavy: QVQLQESGPGLVKPSETLSLTCTVSGYSITSDYAWNWIRQFPGNKLEWMGYITYSGSTYYNPSLKSRVTISVDTSKNQFSLKLSSVTAADTATYYCVSGTYYFDYWGQGTTLTVSSASTKGPSVFPLAPSSKSTSGGTAALGCLVKDYFPEPVTVSWNSGALTSGVHTFPAVLQSSGLYSLSSVVTVPSSSLGTQTYICNVNHKPSNTKVDKKVEPKSCDKTHTCPPCPAPELLAGPDVFLFPPKPKDTLMISRTPEVTCVVVDVSHEDPEVKFNWYVDGVEVHNAKTKPREEQYNSTYRVVSVLTVLHQDWLNGKEYKCKVSNKALPLPEEKTISKAKGQPREPQVYTLPPSRDELTKNQVSLTCLVKGFYPSDIAVEWESNGQPENNYKTTPPVLDSDGSFFLYSKLTVDKSRWQQGNVFSCSVMHEALHNHYTQKSLSLSPGK light: DIVMTQSPSSLSASVGDRVTITCRASQSVSSDVAWFQQKPGKSPKPLIYYASNRYSGVPSRFSGSGSGTDFTLTISSLQAEDFAVYFCGQDYTSPRTFGGGTKLEIKRTVAAPSVFIFPPSDEQLKSGTASVVCLLNNFYPREAKVQWKVDNALQSGNSQESVTEQDSKDSTYSLSSTLTLSKADYEKHKVYACEVTHQGLSSPVTKSFNRGEC | –
3.7 relative (EC50 OS001/EC50 construct) | 4 relative (EC50 OS001/EC50 construct) | OS016 (antibody, human IgG1, kappa) heavy: QVQLQESGPGLVKPSETLSLTCTVSGYSITSDYAWNWIRQFPGNKLEWMGYITYSGSTYYNPSLKSRVTISVDTSKNQFSLKLSSVTAADTATYYCVSGTYYFDYWGQGTTLTVSSASTKGPSVFPLAPSSKSTSGGTAALGCLVKDYFPEPVTVSWNSGALTSGVHTFPAVLQSSGLYSLSSVVTVPSSSLGTQTYICNVNHKPSNTKVDKKVEPKSCDKTHTCPPCPAPELLAGPSVFLFPPKPKDTLMISRTPEVTCVVVDVEFEDPEVKFNWYVDGVEVHNAKTKPREEQYNSTYRVVSVLTVLHQDWLNGKEYKCKVTNKALPAPEEKTISKAKGQPREPQVYTLPPSRDELTKNQVSLTCLVKGFYPSDIAVEWESNGQPENNYKTTPPVLDSDGSFFLYSKLTVDKSRWQQGNVFSCSVMHEALHNHYTQKSLSLSPGK light: DIVMTQSPSSLSASVGDRVTITCRASQSVSSDVAWFQQKPGKSPKPLIYYASNRYSGVPSRFSGSGSGTDFTLTISSLQAEDFAVYFCGQDYTSPRTFGGGTKLEIKRTVAAPSVFIFPPSDEQLKSGTASVVCLLNNFYPREAKVQWKVDNALQSGNSQESVTEQDSKDSTYSLSSTLTLSKADYEKHKVYACEVTHQGLSSPVTKSFNRGEC | –
4 relative (EC50 OS001/EC50 construct) | 5.6 relative (EC50 OS001/EC50 construct) | OS007 (antibody, human IgG1, kappa) heavy: QVQLQESGPGLVKPSETLSLTCTVSGYSITSDYAWNWIRQFPGNKLEWMGYITYSGSTYYNPSLKSRVTISVDTSKNQFSLKLSSVTAADTATYYCVSGTYYFDYWGQGTTLTVSSASTKGPSVFPLAPSSKSTSGGTAALGCLVKDYFPEPVTVSWNSGALTSGVHTFPAVLQSSGLYSLSSVVTVPSSSLGTQTYICNVNHKPSNTKVDKKVEPKSCDKTHTCPPCPAPELLAGPDVFLFPPKPKDTLMISRTPEVTCVVVDVSHEDPEVKFNWYVDGVEVHNAKTKPREEQYNSTYRVVSVLTVLHQDWLNGKEYKCKVSNKALPAPEEKTISKAKGQPREPQVYTLPPSRDELTKNQVSLTCLVKGFYPSDIAVEWESNGQPENNYKTTPPVLDSDGSFFLYSKLTVDKSRWQQGNVFSCSVMHEALHNHYTQKSLSLSPGK light: DIVMTQSPSSLSASVGDRVTITCRASQSVSSDVAWFQQKPGKSPKPLIYYASNRYSGVPSRFSGSGSGTDFTLTISSLQAEDFAVYFCGQDYTSPRTFGGGTKLEIKRTVAAPSVFIFPPSDEQLKSGTASVVCLLNNFYPREAKVQWKVDNALQSGNSQESVTEQDSKDSTYSLSSTLTLSKADYEKHKVYACEVTHQGLSSPVTKSFNRGEC | –
1.4 relative (EC50 OS001/EC50 construct) | 1.2 relative (EC50 OS001/EC50 construct) | OS010 (antibody, human IgG1, kappa) heavy: not shown light: DIVMTQSPSSLSASVGDRVTITCRASQSVSSDVAWFQQKPGKSPKPLIYYASNRYSGVPSRFSGSGSGTDFTLTISSLQAEDFAVYFCGQDYTSPRTFGGGTKLEIKRTVAAPSVFIFPPSDEQLKSGTASVVCLLNNFYPREAKVQWKVDNALQSGNSQESVTEQDSKDSTYSLSSTLTLSKADYEKHKVYACEVTHQGLSSPVTKSFNRGEC | –
